The text below walks through data of patent US20190085095A1 (SHIRE HUMAN GENETIC THERAPIES, published 2019).

Assay [1] concerns the target FcγRIIIA (UniProt P08637 17-208, limits assumed). In words: binding affinity to Fcγ receptor, method not stated; range 1000-31.25 nM.
The target in assay [2] is T1, human neonatal Fc receptor (FcRn) (human, UniProt P55899 24-297; P61769 21-119).
T1 construct: also called hFcRn; recombinant FcRn
The experiment in a line: Biacore, immobilized recombinant hFcRn, pH 5.5; pH 5.5. (Surface plasmon resonance follows binding to a sensor surface in real time, without labels.)
Protocol: (§1) Kinetics of binding to immobilized recombinant FcRn was determined for mAbs at pH 7.4 and pH 5.5 in Biacore® assays.

Assay [3] has as its target T2, human complement component 5 (C5) (human, UniProt P01031 19-1676).
T2 construct: used as purified protein or in serum as the analyte; also called hC5; purified human C5
The experiment in a line: Biacore; KD at pH 5.5 against KD at pH 7.4.
Protocol: (§2) The kinetics of binding of purified human C5 (hC5) or hC5 in human serum to immobilized mAbs (via capture with anti-Fc antibodies) were measured by Biacore® assays over a pH range from 7.4 to 5.5. Binding was tested at pH 7.4, 7.0, 6.5, 6.0, and 5.5.

The target in assay [4] is T1, human neonatal Fc receptor (FcRn). In words: Biacore, immobilized recombinant hFcRn, pH 6.0; pH 6.0.
Protocol: as §1
For assay [5], the target named is T2, human complement component 5 (C5). The experiment in a line: cell-based or functional assay.
Assay [6] shares this target. In words: Biacore, mAb captured via anti-Fc, hC5, pH 7.4.
Protocol: as §2
Assay [7] shares this target. In words: Biacore, mAb captured via anti-Fc, hC5, pH 5.5.
Protocol: as §2
Assay [8] shares this target. In words: Biacore, pH 7.4, against Control 1.
Protocol: as §2
The target of assay [9] is T3, cynomolgus monkey C5 (cynomolgus monkey, UniProt A0A2K5U1T1 19-1676).
T3 construct: also called cC5; cynomolgus C5
In words: mean affinity for cC5, Biacore.

Assay [10] has as its target T4, baboon C5 (baboon).
T4 construct: also called C5 in baboon serum
In words: Biacore, antibody captured, baboon serum as analyte, pH 7.4; estimated, C5 titer assumed.
Protocol: (§3) Biacore® binding assays were performed with antibody captured on the chip and sera from 16 different mammalian species as the analyte that is flowed over the chip.

The target in assay [11] is T5, African Green monkey C5 (African Green monkey).
T5 construct: also called C5 in African Green monkey serum
The experiment in a line: Biacore, antibody captured, African Green monkey serum as analyte, pH 7.4; estimated, C5 titer assumed.
Protocol: as §3

The target of assay [12] is T2, human complement component 5 (C5). In words: C5 binding affinity at pH 5.5; method not named in Example 2.
Assay [13] shares this target. In words: C5 binding affinity at pH 7.4; method not named in Example 2; pH 7.4; IgG2 Fc.
For assay [14] the target is unchanged. The experiment in a line: Kd at pH 5.5 against Kd at pH 7.4.
The target in assay [15] is T6, CD-1 mouse C5 (CD-1 mouse, UniProt P06684 19-1680).
T6 construct: also called C5 in CD-1 mouse serum; CD1 mice
In words: Biacore, antibody captured, CD-1 mouse serum as analyte, pH 7.4; estimated, C5 titer assumed.
Protocol: as §3

Assay [16] concerns the target T1, human neonatal Fc receptor (FcRn). The experiment in a line: Biacore, immobilized recombinant hFcRn, pH 5.5.
Protocol: as §1
The target in assay [17] is FcγRI (UniProt P12314 16-288, limits assumed). In words: binding affinity to Fcγ receptor, method not stated; range 62.5-0.48 nM.
The target of assay [18] is T3, cynomolgus monkey C5. The experiment in a line: KD for cC5 of Antibody B against that of Control 1.
In assay [19] the target is T2, human complement component 5 (C5). The experiment in a line: Biacore, mAb captured via anti-Fc, purified hC5, pH 5.5.
Protocol: (§4) Binding of hC5 to immobilized mAbs (via capture with anti-Fc antibodies) were measured by Biacore® assays at 7.4 and pH 5.5.
For assay [20], the target named is T1, human neonatal Fc receptor (FcRn). The experiment in a line: Biacore, immobilized recombinant hFcRn, pH 7.4; range 2000-15.6 nM.
Protocol: as §1
The target of assay [21] is T2, human complement component 5 (C5). The experiment in a line: Biacore, antibody captured, human serum as analyte, pH 7.4.
Protocol: as §3
Assay [22] shares this target. The experiment in a line: Biacore, antibody captured, purified C5, pH 7.4.
For assay [23] the target is unchanged. The experiment in a line: Biacore, mAb captured via anti-Fc, purified hC5, pH 7.4.
Protocol: as §4
For assay [24], the target named is T3, cynomolgus monkey C5. In words: Biacore, pH 7.4, cynomolgus against human (FIG. 8G).
Protocol: as §3
To validate the binding as specific to C5, pull-down experiments were performed on sera from cynomolgus monkeys. Size exclusion chromatography was used to purify the resulting cynomolgus C5, which was also used to reconfirm binding on biacore.
In assay [25] the target is T3, cynomolgus monkey C5. The experiment in a line: Biacore, antibody captured, cynomolgus serum as analyte, pH 7.4.
Protocol: as §3
Assay [26] concerns the target T1, human neonatal Fc receptor (FcRn). In words: Biacore, immobilized recombinant hFcRn, pH 7.4; range 50-0.39 nM; pH 7.4; concentration range 50-0.39 nM.
Protocol: as §1
In assay [27] the target is T7, rhesus monkey C5 (rhesus monkey, UniProt F7GHV1 19-1676).
T7 construct: also called C5 in rhesus serum
In words: Biacore, antibody captured, rhesus serum as analyte, pH 7.4; estimated, C5 titer assumed.
Protocol: as §3

For assay [28], the target named is T1, human neonatal Fc receptor (FcRn). In words: Biacore, immobilized recombinant hFcRn, pH 6.0.
Protocol: as §1
Assay [29] concerns the target T2, human complement component 5 (C5). In words: C5 binding affinity at pH 7.4; method not named in Example 2.

Changes are numbered by the printed parent chain. Names may count otherwise. “And” between values parts separate entries of the source, which are not always exact repeats. Equal entries are not always repeated. Some results are limits rather than exact numbers.

FcγRI, sequence (P12314 16-288 limits assumed): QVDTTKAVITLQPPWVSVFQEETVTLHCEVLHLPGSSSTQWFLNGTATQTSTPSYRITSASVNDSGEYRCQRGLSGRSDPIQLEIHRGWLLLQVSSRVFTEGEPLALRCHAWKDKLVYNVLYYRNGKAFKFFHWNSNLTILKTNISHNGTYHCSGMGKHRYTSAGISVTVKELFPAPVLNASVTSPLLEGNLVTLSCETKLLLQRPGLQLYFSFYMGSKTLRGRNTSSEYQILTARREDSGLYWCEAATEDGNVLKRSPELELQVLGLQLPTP
T1 sequence (P55899 24-297 limits assumed, chain 1 of 2): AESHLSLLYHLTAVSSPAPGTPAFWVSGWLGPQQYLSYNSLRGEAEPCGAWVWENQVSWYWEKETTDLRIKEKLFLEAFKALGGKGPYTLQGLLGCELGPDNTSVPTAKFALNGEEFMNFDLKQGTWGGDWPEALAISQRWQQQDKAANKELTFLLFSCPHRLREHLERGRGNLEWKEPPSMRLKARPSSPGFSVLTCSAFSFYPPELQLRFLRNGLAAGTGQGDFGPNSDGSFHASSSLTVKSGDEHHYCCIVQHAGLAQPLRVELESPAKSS
T1 sequence (P61769 21-119 limits assumed, chain 2 of 2): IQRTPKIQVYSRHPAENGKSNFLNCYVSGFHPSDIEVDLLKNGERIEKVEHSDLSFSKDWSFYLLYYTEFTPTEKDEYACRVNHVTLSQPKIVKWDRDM
FcγRIIIA, sequence (P08637 17-208 limits assumed): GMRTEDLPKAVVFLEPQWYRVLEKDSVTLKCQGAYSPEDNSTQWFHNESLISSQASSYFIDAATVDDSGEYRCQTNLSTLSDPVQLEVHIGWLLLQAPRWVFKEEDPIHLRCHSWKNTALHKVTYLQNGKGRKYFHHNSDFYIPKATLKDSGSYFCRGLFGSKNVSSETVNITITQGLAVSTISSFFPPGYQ
T7 sequence (F7GHV1 entry or part of it): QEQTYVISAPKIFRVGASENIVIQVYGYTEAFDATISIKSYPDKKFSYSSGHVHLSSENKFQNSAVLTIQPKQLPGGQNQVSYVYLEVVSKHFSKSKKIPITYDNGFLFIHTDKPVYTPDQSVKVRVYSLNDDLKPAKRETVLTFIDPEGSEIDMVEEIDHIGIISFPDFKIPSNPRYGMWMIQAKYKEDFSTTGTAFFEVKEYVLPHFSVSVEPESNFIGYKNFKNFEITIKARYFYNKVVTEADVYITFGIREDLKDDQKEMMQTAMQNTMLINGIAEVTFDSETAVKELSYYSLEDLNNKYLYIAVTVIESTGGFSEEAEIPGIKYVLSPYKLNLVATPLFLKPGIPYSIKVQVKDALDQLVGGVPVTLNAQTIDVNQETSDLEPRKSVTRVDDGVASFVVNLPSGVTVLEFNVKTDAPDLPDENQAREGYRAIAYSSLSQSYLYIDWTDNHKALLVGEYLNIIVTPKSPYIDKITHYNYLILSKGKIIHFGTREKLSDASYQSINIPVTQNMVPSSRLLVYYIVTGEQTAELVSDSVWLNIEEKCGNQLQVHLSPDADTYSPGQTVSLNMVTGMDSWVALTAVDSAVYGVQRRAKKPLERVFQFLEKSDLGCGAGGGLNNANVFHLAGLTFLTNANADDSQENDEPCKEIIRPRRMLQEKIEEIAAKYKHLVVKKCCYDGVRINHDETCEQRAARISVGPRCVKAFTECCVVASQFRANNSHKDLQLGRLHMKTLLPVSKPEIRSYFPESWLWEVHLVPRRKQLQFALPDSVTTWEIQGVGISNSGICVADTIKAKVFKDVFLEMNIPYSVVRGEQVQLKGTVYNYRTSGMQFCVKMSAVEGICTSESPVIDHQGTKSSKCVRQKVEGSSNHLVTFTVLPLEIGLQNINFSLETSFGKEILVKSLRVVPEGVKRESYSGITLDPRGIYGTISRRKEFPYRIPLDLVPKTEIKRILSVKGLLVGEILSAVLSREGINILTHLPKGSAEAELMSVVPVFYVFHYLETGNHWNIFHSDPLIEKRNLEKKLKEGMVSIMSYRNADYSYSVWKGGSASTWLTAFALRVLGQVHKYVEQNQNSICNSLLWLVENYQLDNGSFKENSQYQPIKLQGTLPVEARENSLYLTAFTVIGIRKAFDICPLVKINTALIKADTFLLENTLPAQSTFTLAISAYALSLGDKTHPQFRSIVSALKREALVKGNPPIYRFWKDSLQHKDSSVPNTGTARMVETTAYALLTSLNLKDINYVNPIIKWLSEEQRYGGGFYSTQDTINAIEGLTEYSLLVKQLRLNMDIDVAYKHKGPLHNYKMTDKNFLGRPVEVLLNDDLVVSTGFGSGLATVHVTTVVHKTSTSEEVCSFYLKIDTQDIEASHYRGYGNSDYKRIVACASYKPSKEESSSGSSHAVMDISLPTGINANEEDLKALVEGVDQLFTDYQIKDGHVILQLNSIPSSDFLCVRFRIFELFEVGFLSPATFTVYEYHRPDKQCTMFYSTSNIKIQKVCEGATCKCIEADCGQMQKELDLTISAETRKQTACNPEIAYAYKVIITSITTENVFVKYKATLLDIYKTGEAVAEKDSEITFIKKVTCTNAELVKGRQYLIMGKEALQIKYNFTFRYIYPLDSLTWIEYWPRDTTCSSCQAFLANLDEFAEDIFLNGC
T6 sequence (P06684 19-1680 limits assumed): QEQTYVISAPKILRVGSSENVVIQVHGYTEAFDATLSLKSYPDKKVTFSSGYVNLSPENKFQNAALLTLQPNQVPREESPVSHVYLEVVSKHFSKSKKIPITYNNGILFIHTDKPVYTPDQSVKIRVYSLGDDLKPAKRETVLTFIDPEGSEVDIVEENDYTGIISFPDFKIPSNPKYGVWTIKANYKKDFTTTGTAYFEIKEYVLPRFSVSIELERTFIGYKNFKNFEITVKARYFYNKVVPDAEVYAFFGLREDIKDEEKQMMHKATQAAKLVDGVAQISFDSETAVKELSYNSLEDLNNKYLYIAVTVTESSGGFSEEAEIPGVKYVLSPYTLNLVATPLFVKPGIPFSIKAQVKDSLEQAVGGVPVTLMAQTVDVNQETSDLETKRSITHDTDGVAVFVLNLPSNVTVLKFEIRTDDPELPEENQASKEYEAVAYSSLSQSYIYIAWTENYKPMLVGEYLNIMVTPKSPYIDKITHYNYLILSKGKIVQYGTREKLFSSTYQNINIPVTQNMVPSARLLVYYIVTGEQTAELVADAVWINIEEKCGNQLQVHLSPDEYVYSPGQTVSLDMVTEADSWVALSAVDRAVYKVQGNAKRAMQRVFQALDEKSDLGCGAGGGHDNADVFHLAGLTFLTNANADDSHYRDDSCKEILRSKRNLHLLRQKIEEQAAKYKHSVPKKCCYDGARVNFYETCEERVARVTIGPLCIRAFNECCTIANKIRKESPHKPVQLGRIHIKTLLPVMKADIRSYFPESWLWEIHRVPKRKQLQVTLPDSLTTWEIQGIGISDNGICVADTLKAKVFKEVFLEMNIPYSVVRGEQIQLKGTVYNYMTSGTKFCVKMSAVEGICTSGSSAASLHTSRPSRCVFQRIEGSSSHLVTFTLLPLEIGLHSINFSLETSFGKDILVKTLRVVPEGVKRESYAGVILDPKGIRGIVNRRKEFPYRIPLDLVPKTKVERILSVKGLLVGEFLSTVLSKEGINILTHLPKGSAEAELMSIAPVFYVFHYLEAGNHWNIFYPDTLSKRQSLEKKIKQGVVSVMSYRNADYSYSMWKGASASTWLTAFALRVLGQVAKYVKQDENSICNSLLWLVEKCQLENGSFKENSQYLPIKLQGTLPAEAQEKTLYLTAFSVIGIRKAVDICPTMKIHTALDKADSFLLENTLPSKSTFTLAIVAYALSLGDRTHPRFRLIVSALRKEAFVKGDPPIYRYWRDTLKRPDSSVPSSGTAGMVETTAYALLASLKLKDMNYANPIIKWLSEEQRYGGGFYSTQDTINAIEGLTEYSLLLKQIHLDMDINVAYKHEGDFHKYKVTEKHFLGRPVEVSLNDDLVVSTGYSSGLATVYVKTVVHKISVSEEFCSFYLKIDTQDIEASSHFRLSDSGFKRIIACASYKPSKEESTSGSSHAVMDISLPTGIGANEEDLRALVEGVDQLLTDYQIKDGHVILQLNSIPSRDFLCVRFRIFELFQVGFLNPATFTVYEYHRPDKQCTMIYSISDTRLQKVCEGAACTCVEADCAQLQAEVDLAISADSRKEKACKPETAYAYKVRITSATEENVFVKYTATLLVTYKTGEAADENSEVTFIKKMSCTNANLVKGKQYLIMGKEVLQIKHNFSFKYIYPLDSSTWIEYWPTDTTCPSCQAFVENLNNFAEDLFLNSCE

B1: Antibody A (antibody, human IgG1, kappa, L234A L235A)
heavy: not shown
light: DIQMTQSPSSLSASVGDRVTITCGAHENIYHALNWYQQKPGKAPKLLIYGATNLAHGVPSRFSGSGSGTDFTLTISSLQPEDFATYYCQNVLNTPLTFGQGTKVEIKRTVAAPSVFIFPPSDEQLKSGTASVVCLLNNFYPREAKVQWKVDNALQSGNSQESVTEQDSKDSTYSLSSTLTLSKADYEKHKVYACEVTHQGLSSPVTKSFNRGEC
notes: IgG1 with L234A, L235A
Usually Kd stands for the free concentration of one partner at which half of the binding sites on the other are occupied at equilibrium, for simple one-to-one binding. For B1, the Kd in [1] was 7420 nM; in assay [2], 5.9 nM; in [4], 11.3 nM; in [6], 0.34 nM; in assay [7], 113 nM; in assay [9], 1.65 nM. In [3], this molecule had a KD fold-change of 332 fold. Further, the “IC50 for inhibition of antibody-sensitized lysis of chicken RBC by human serum” value in [5] was 3 µg/mL. Moreover, in assay [8], the “fold reduction of the C5 binding affinity at pH 7.4 as compared to Control 1” value (“fold reduction” for short) was less than 3 fold.

B2: Control 1 (antibody, human IgG2, kappa)
heavy: QVQLVQSGAEVKKPGASVKVSCKASGYIFSNYWIQWVRQAPGQGLEWMGEILPGSGSTEYTENFKDRVTMTRDTSTSTVYMELSSLRSEDTAVYYCARYFFGSSPNWYFDVWGQGTLVTVSSASTKGPSVFPLAPCSRSTSESTAALGCLVKDYFPEPVTVSWNSGALTSGVHTFPAVLQSSGLYSLSSVVTVPSSNFGTQTYTCNVDHKPSNTKVDKTVERKCCVECPPCPAPPVAGPSVFLFPPKPKDTLMISRTPEVTCVVVDVSQEDPEVQFNWYVDGVEVHNAKTKPREEQFNSTYRVVSVLTVLHQDWLNGKEYKCKVSNKGLPSSIEKTISKAKGQPREPQVYTLPPSQEEMTKNQVSLTCLVKGFYPSDIAVEWESNGQPENNYKTTPPVLDSDGSFFLYSRLTVDKSRWQEGNVFSCSVMHEALHNHYTQKSLSLSLGK
light: B1 light with H26S, H31G, H56D
notes: IgG2 and IgG4 (IgG 2-4); produced in CHO cells; also called control antibody
In the case of B2, the Kd was 125 nM in assay [2], 125 nM in assay [4], 16.2 nM in assay [10] and 27.5 nM in assay [11].

B3: Antibody D (antibody, human IgG2, kappa)
heavy: QVQLVQSGAEVKKPGASVKVSCKASGYIFSNYWIQWVRQAPGQGLEWMGEILPGSGSTEYTENFKDRVTMTRDTSTSTVYMELSSLRSEDTAVYYCARYHFGSSPNWYFDVWGQGTLVTVSSASTKGPSVFPLAPCSRSTSESTAALGCLVKDYFPEPVTVSWNSGALTSGVHTFPAVLQSSGLYSLSSVVTVPSSNFGTQTYTCNVDHKPSNTKVDKTVERKCCVECPPCPAPPVAGPSVFLFPPKPKDTLMISRTPEVTCVVVDVSHEDPEVQFNWYVDGVEVHNAKTKPREEQFNSTFRVVSVLTVVHQDWLNGKEYKCKVSNKGLPAPIEKTISKTKGQPREPQVYTLPPSREEMTKNQVSLTCLVKGFYPSDIAVEWESNGQPENNYKTTPPMLDSDGSFFLYSKLTVDKSRWQQGNVFSCSVMHEALHNHYTQKSLSLSPGK
light: B1 light with H26S, H31G, H56D, N93H
notes: IgG2 Fc constant region; also called F100H heavy / N93H light on IgG2 backbone
In the case of B3, the Kd was 13.9 nM in assay [12] and 1.04 nM in assay [13]. Also, in [14], the “Fold change in Kd (pH 5.5 vs. pH 7.4)” value was determined as 13.4 fold.

B4: Antibody B (antibody, human IgG1, kappa, L234A L235A)
heavy: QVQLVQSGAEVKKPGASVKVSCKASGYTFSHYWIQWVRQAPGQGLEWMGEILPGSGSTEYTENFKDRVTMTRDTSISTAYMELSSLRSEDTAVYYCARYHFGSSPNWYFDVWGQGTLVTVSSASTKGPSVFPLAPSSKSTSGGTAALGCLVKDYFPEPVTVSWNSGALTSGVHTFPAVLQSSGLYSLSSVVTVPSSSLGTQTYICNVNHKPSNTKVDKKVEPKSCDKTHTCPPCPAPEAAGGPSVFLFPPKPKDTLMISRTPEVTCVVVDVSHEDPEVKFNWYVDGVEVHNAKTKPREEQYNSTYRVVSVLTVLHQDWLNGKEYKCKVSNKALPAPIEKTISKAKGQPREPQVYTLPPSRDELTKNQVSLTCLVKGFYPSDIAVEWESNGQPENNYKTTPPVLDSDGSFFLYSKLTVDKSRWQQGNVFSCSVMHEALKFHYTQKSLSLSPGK
light: B1 light
notes: IgG1 with L234A, L235A, H433K, N434F
Turning to B4, the Kd was 9620 nM in assay [1]; 5.3 nM in [15]; 0.13 nM in assay [16]; 94 nM and 75 nM and 62 nM in assay [17]; 191 nM in [20]; 0.33 nM in assay [21]. The Kd is 0.34 nM in assay [22]; 0.35 nM in assay [6]; 145 nM in assay [7]; 2.6 nM in assay [10]; 3.2 nM in [11]; 1.9 nM in assay [25]. Moreover, the dissociation constant (Kd) in assay [26] was 108 nM; in assay [27] it was 3.19 nM; in assay [28], 0.24 nM. In [18], the “fold improvement in affinity against Control 1” value came to 8 fold. Further, in [19], the “fold lower affinity than BNJ441 at pH 5.5” value is 10 fold. Moreover, the KD fold-change in assay [3] was found to be 414 fold. The “IC50 for inhibition of antibody-sensitized lysis of chicken RBC by human serum” value in assay [5] stood at 3 µg/mL. The “fold greater affinity than BNJ441 at pH 7.4” value in assay [23] stood at 3 fold. Besides, in [24], the “fold lower affinity than for human C5” value stood at 5.7 fold. For the same molecule, the “fold reduction” value in assay [8] was less than 3 fold.

B5: Antibody E (antibody, human IgG1, kappa, L234A L235A)
heavy: not shown
light: B1 light with H26S, H31G, H56D, N93H
notes: IgG1 Fc constant region; also called F100H heavy / N93H light on IgG1 backbone
Regarding B5, the Kd turned out to be 34.9 nM in [12] and 0.72 nM in [29]. Further, the “Fold change in Kd (pH 5.5 vs. pH 7.4)” value in assay [14] amounted to 48.5 fold.

B6: Antibody C (antibody, human IgG1, kappa, L234A L235A, V domains shown)
VH: QVQLVQSGAEVKKPGASVKVSCKASGYTFSHYWIQWVRQAPGQGLEWMGEILPGSGSTEYTENFKDRVTMTRDTSISTAYMELSSLRSEDTAVYYCARYHFGSSPNWYFDVWGQGTLVTVSS
VL: DIQMTQSPSSLSASVGDRVTITCGAHENIYGALNWYQQKPGKAPKLLIYGATNLAHGVPSRFSGSGSGTDFTLTISSLQPEDFATYYCQNVLNTPLTFGQGTKVEIKR
notes: as for B4
The molecule B6 registered a KD fold-change in assay [3] of 142 fold. Besides, the Kd in assay [6] was determined as 0.26 nM; in [7] it was 37 nM. For the same molecule, the “fold reduction” value in assay [8] was less than 3 fold.
